Assay results: paper PMC12214486

Legend:
[1] = target: T1, DNA polymerase iota catalytic core (UniProt Q9UNA4 26-443); assay: X-ray crystallography
T1 sequence: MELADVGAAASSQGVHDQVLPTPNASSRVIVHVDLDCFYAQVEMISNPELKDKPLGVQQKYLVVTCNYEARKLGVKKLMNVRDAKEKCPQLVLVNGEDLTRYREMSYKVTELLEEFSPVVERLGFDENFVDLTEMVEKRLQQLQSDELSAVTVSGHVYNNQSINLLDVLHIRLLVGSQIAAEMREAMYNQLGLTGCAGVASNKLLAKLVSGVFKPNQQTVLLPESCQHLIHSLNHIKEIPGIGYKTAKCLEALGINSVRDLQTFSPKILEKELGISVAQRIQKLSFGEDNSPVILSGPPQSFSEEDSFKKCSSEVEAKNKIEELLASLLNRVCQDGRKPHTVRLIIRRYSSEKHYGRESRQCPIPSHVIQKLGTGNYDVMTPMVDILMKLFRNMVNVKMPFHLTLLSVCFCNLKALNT

[2] = target: T1, DNA polymerase iota catalytic core; assay: X-ray crystallography; remark: listed apart in the source
[3] = target: T1, DNA polymerase iota catalytic core; assay: X-ray crystallography; remark: listed apart in the source
[4] = target: T1, DNA polymerase iota catalytic core; assay: time-lapse X-ray crystallography

B1: self-annealed 18-mer substrate DNA, template A (dsDNA)
DNA 1: TCAAGGGTCCTAGGACCC
DNA 2: TCAAGGGTCCTAGGACCC
Question: Does B1 bind [1]?
Answer: Result: binds

B2: self-annealed 19-mer product DNA (pre-translocation) (dsDNA)
DNA 1: TCAAGGGTCCTAGGACCCT
DNA 2: TCAAGGGTCCTAGGACCCT
Question: Does B2 bind [2]?
Answer: Result: binds

B3: self-annealed 17-mer product DNA (post-translocation) (dsDNA)
DNA 1: TCAAGGGTCCGGACCCT
DNA 2: TCAAGGGTCCGGACCCT
Question: Does B3 bind [3]?
Answer: Result: binds

B4: product DNA formed in crystallo from 18-mer plus dTTP (dsDNA)
DNA 1: TCAAGGGTCCTAGGACCCT
DNA 2: TCAAGGGTCCTAGGACCCT
Question: Does B4 bind [4]?
Answer: Result: binds
